Measured values taken from patent US20100015654A1 (INSTITUT DE RECHERCHES CLINIQUES DE MONTREAL I R C M, published 2010).

How the values were obtained:
mouse CD16 = biological target: T1, mouse CD16 (mouse, UniProt P08508 31-261); experiment: co-immunoprecipitation from IL-2-activated mouse NK cells (data not shown)
T1 construct: whole, on cells; Endogenous protein in NK cell lysates
T1 sequence (looked up): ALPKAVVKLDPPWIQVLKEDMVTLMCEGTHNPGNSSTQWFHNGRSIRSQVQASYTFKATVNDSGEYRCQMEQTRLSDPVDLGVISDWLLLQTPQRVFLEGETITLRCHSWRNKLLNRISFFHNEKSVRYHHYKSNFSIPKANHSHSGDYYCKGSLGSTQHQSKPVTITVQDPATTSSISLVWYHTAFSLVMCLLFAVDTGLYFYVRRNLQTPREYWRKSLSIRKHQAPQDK

mouse CRACC = biological target: T2, mouse CRACC (mouse, UniProt Q8BHK6 23-333); experiment: co-immunoprecipitation from IL-2-activated mouse NK cells, anti-CRACC immunoblot
T2 construct: whole, on cells; Endogenous protein in NK cell lysates
T2 sequence (looked up): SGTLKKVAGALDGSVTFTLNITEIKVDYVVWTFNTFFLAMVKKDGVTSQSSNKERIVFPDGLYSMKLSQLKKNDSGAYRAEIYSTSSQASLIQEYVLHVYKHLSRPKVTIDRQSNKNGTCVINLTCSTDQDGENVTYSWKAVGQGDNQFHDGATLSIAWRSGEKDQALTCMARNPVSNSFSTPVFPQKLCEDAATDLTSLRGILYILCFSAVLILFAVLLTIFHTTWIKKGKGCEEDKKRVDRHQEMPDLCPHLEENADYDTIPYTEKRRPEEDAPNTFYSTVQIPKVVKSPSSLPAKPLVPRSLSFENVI
Description: (§1) Association of phosphotyrosine-containing proteins with SAP-related adaptors in mouse NK cells. The indicated SAP-related adaptors were immunoprecipitated from IL-2-activated mouse NK cells, resolved in 8% gels and probed by immunoblotting with anti-phosphotyrosine (P.tyr). The anti-EAT-2 MAbs used for immunoprecipitation react with both EAT-2 and ERT. Anti-CD4 MAb GK1.5 was used as control antibody. IgH: heavy chain of IgG. Efficient immunoprecipitation of the SAP-related adaptors was verified by probing parallel immunoprecipitates with anti-EAT-2/ERT and anti-SAP (data not shown). b. Association of 2B4 with SAP-related adaptors in NK cells. Immunoprecipitates of SAP family adaptors were reprobed by immunoblotting with anti-2B4 (top panels), anti-CRACC (middle panels) and anti-CD84 (bottom panels). The migration of the various SLAM-related receptors was verified by immunoblotting of total cell lysates with the specified antibodies (lane 5).
(§2) Mouse NK cells express three SLAM-related receptors, 2B4, CRACC and CD84, that have apparent molecular masses between 60 and 70 kDa (our unpublished results). To determine if the 70 kDa-tyrosine phosphorylated protein associated with SAP family adaptors was any of these SLAM-related receptors, immunoprecipitates of SAP-related adaptors were probed by immunoblotting with antibodies against each of these SLAM family members (FIG. 5b). […]

mouse CD84 = biological target: T3, mouse CD84 (mouse, UniProt Q18PI6 22-329); experiment: co-immunoprecipitation from IL-2-activated mouse NK cells, anti-CD84 immunoblot
T3 construct: whole, on cells; Endogenous protein in NK cell lysates
T3 sequence (looked up): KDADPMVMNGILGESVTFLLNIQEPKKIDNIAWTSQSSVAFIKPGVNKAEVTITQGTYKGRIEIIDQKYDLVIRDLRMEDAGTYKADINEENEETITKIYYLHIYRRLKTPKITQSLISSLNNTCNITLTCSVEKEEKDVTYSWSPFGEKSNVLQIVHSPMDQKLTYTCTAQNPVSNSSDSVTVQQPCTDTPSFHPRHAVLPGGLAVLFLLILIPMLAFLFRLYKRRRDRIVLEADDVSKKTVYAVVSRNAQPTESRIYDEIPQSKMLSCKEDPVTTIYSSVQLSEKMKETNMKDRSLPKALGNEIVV
Description: as §1, §2

Measured: binding result

B1: mouse SAP (other, UniProt O88890 1-126, looked up)
chain: MDAVTVYHGKISRETGEKLLLATGLDGSYLLRDSESVPGVYCLCVLYQGYIYTYRVSQTETGSWSAETAPGVHKRFFRKVKNLISAFQKPDQGIVTPLQYPVEKSSGRGPQAPTGRRDSDICLNAP
notes: Intracellular adaptor made of an SH2 domain and a short tail
no binding: all assays above
